# Like-named read-outs stand apart in the source and are kept apart here. Bridge positions count the residues as written; N and C are the ends. Ends that are not written are not given here.
# B1: consensus peptide CLLRMRSIC (SEQ ID NO: 1), cyclized in the disulfide-linked form (peptide)
# peptide: CLLRMRSIC
# modifications: disulfide 1-9
# notes: Synthesized by Biopeptide; consensus derived from phage display on ICAM-1
# Experiments:
# [1] = target: T1, ICAM-1 expressed on cells (JY cells; stimulated endothelial cells) (UniProt P05362 28-532, limits assumed); test: cell-based or functional assay
# [2] = target: T1, ICAM-1 expressed on cells (JY cells; …); test: cell-based or functional assay; remark: listed apart in the source
# [3] = target: T1, ICAM-1 expressed on cells (JY cells; …); test: cell-based or functional assay; remark: listed apart in the source
# [4] = target: T2, ICAM-1 (intracellular adhesion molecule 1), as used in the ELISA of monovalent ICAM-1 binding (human, UniProt P05362 28-480, limits assumed); test: ELISA of monovalent ICAM-1 binding; for example inhibition of 84H10 binding to ICAM-1
# T2 construct: also called purified ICAM-1
# [5] = target: T1, ICAM-1 expressed on cells (JY cells; …); test: cell-based or functional assay; remark: listed apart in the source
# T1 sequence (P05362 28-532 limits assumed): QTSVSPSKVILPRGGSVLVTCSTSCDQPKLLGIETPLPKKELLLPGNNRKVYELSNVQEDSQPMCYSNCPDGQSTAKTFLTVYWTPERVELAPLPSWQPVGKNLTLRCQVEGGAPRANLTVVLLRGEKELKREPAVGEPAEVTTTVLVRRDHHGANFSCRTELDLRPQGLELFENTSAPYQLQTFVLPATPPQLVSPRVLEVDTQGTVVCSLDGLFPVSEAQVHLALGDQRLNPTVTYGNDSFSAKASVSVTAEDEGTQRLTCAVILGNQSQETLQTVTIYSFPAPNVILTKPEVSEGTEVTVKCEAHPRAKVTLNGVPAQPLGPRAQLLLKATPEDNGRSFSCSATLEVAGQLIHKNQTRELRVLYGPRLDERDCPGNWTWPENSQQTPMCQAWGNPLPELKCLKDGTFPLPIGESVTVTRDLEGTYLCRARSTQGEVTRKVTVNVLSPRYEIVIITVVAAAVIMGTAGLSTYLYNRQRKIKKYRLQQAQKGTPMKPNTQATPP
# T2 sequence (P05362 28-480 limits assumed): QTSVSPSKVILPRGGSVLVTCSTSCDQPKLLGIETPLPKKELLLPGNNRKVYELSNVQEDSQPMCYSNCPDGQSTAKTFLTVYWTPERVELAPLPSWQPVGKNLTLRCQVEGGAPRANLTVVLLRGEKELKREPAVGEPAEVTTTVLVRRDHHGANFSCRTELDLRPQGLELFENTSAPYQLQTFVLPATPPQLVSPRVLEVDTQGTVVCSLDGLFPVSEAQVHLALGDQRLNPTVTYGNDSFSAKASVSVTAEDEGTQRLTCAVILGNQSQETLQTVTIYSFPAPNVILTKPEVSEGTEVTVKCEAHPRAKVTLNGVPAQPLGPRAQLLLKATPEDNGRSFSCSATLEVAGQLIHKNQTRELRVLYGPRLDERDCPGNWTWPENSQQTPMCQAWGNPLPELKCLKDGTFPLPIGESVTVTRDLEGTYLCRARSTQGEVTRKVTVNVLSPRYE
Binder,Percent Inhibition [1],Percent JY Aggregation [1],Percent Inhibition [2],Percent JY Aggregation [2],further results
"CILRMRSAC (disulfide 1-9) [CILRMRSAC (SEQ ID NO: 43), cyclic disulfide-linked peptide]",92 percent,4 percent,,,
"CLLRMRAIC (disulfide 1-9) [CLLRMRAIC (SEQ ID NO: 39), cyclic disulfide-linked peptide]",,,27 percent,56 percent,
"CVLRMRSAC (disulfide 1-9) [CVLRMRSAC (SEQ ID NO: 42), cyclic disulfide-linked peptide]",56 percent,24 percent,,,
"CALRMRSIC (disulfide 1-9) [CALRMRSIC (SEQ ID NO: 34), cyclic disulfide-linked peptide]",,,7 percent,71 percent,
"CLVRMRSAC (disulfide 1-9) [CLVRMRSAC (SEQ ID NO: 41), cyclic disulfide-linked peptide]",0 percent,55 percent,,,
"CLLRMASIC (disulfide 1-9) [CLLRMASIC (SEQ ID NO: 38), cyclic disulfide-linked peptide]",,,11 percent,68 percent,
CLRLSRIMC (disulfide 1-9) [randomized cyclic peptide CLRLSRIMC (SEQ ID NO: 56)],-3.6 percent,57 percent,4 percent,74 percent,"Cells/mm^2, firm attachment of neutrophils to stimulated endothelial cells in a parallel plate flow chamber [3]: 617 cells/mm^2; Percent Inhibition of firm attachment of neutrophils to stimulated endothelial cells [3]: 25 percent"
"CLLRMRSAC (disulfide 1-9) [CLLRMRSAC (SEQ ID NO: 40), cyclic disulfide-linked peptide]",,,61 percent,29 percent,
"CLLKMRSAC (disulfide 1-9) [CLLKMRSAC (SEQ ID NO: 45), cyclic disulfide-linked peptide]",94 percent,3 percent,,,
"CLIRMRSAC (disulfide 1-9) [CLIRMRSAC (SEQ ID NO: 44), cyclic disulfide-linked peptide]",93 percent,4 percent,,,
B1,45 percent,30 percent,46 percent,41 percent,"IC50 [4]: 0.25 µM; Cells/mm^2, firm attachment of neutrophils to stimulated endothelial cells in a parallel plate flow chamber [3]: 439 cells/mm^2; Percent Inhibition of firm attachment of neutrophils to stimulated endothelial cells [3]: 47 percent; IC50, inhibition of JY cell aggregation [5]: 500 µM; IC50 for cell aggregation [5]: 800 µM"
"CLLRARSIC (disulfide 1-9) [CLLRARSIC (SEQ ID NO: 37), cyclic disulfide-linked peptide]",,,5 percent,72 percent,
"CLLRMRSLC (disulfide 1-9) [CLLRMRSLC (SEQ ID NO: 47), cyclic disulfide-linked peptide]",-12 percent,61 percent,,,
"CLLRMKSAC (disulfide 1-9) [CLLRMKSAC (SEQ ID NO: 46), cyclic disulfide-linked peptide]",90 percent,6 percent,,,"Cells/mm^2, firm attachment of neutrophils to stimulated endothelial cells in a parallel plate flow chamber [3]: 283 cells/mm^2; Percent Inhibition of firm attachment of neutrophils to stimulated endothelial cells [3]: 66 percent"
"CLARMRSIC (disulfide 1-9) [CLARMRSIC (SEQ ID NO: 35), cyclic disulfide-linked peptide]",,,9 percent,69 percent,
"CLLRMRSVC (disulfide 1-9) [CLLRMRSVC (SEQ ID NO: 48), cyclic disulfide-linked peptide]",92 percent,4 percent,,,

# Reference: patent publication US20010034326A1 (UNIVERSITY OF NEW MEXICO, published 2001)
